Measurements published in PMC8406179.

What was measured:
[1] = target: retinoblastoma tumor suppressor protein RB1 (endogenous, HCT116) (UniProt P06400); test: immunoprecipitation/Western blot (anti-Flag IP of E7, RB1 immunoblot); conditions: parent: 1
endogenous murine Rb1 = endogenous murine Rb1 (UniProt P13405); test: immunoprecipitation/Western blot (anti-HA IP of E7, Rb1 immunoblot); conditions: NIH 3T3 cells, transient expression; parent: 1
[2] = HCT116 cells, transient expression

Sequence of UniProt P06400 (P06400 whole entry): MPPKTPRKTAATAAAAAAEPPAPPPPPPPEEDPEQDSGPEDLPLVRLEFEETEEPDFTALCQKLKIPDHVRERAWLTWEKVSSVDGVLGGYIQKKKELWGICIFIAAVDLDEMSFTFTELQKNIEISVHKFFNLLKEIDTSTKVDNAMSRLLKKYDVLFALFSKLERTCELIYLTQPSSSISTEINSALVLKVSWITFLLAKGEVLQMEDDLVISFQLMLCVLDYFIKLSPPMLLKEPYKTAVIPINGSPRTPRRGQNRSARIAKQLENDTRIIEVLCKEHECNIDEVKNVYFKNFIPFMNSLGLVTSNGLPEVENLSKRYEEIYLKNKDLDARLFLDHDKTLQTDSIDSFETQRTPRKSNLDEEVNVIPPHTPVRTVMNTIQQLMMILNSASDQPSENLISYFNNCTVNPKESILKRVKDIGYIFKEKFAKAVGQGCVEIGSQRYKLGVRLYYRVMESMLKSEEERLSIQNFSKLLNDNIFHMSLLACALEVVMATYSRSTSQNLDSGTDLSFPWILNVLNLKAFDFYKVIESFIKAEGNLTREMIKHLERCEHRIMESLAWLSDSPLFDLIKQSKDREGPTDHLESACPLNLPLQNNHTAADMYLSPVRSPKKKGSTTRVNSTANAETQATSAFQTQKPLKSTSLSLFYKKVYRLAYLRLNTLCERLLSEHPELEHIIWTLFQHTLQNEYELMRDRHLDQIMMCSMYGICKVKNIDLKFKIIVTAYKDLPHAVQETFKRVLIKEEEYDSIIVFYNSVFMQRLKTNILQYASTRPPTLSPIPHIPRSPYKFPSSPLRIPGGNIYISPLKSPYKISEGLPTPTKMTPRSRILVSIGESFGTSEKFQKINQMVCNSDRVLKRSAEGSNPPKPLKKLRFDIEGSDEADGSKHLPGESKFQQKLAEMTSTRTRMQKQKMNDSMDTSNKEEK
Sequence of UniProt P13405 (P13405 whole entry): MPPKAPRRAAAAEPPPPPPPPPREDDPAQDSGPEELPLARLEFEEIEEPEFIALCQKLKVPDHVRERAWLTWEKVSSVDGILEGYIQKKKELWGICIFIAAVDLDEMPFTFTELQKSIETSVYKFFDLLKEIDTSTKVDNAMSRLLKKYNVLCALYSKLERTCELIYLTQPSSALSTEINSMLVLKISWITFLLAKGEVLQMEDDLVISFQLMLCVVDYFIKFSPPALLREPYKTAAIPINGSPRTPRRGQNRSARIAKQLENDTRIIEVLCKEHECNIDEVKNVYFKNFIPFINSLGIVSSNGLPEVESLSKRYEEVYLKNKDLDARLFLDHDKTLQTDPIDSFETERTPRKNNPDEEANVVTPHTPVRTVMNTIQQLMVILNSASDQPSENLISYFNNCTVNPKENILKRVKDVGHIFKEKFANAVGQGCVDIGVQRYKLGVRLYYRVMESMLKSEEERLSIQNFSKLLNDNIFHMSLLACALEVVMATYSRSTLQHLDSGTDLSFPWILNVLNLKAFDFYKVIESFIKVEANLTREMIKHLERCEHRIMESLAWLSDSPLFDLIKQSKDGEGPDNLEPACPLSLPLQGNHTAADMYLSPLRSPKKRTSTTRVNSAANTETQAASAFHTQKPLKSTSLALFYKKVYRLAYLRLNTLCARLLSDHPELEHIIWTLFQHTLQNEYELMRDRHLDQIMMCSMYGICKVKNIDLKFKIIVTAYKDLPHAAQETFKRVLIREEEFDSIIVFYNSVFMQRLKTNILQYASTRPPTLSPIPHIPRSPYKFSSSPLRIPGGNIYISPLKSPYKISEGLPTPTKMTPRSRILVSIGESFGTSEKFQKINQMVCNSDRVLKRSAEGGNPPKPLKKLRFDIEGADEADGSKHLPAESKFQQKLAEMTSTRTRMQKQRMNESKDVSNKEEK

Substance | ratio to parent [1, 2] | ratio to parent [1] | ratio to parent (endogenous murine Rb1)
N-terminally FLAG/HA epitope-tagged MmuPV1 E7 R57D | 0.64 |  | 
N-terminally FLAG/HA epitope-tagged MmuPV1 E7 D90T |  | 0.07 | 
N-terminally FLAG/HA epitope-tagged MmuPV1 E7 D90A | 0.01 | 0.05 | 0.02
N-terminally FLAG/HA epitope-tagged MmuPV1 E7 E84R; S85R | 0.65 |  | 
N-terminally FLAG/HA epitope-tagged MmuPV1 E7 D90N |  | 0.27 | 
